From article PMC7356358, “Comparative Characterization of Plasmodium falciparum Hsp70-1 Relative to E. coli DnaK Reveals the Functional Specificity of the Parasite Chaperone” (Biomolecules, 2020) come the findings set out here.

Values joined by “and” are separate entries in the source; they are usually repeats but may differ in a detail not shown here. Equal entries are not always repeated.

B1: peptide ALLLMYRR (peptide)
peptide: ALLLMYRR
notes: canonical model Hsp70 peptide substrate; source: synthetic peptide
B2: Plasmodium falciparum Hsp70-1 (natural protein)
chain: not shown
notes: Plasmodium falciparum Hsp70-1, cytosolic Hsp70; PlasmoDB PF3D7_0818900; expressed from pQE30/PfHsp70-1; also called PfHsp70-1; PfHsp70
B3: peptide GFRNNNMYRF (peptide)
peptide: GFRNNNMYRF
notes: source: synthetic peptide
B4: peptide GFRVVLMYRF (peptide)
peptide: GFRVVLMYRF
notes: as for B1
B5: peptide NRLLTG (peptide)
peptide: NRLLTG
notes: as for B1
B6: peptide ANNNMYRR (peptide)
peptide: ANNNMYRR
notes: source: synthetic peptide
B7: Plasmodium falciparum Hsp40 (natural protein, UniProt Q8IL88 1-424, looked up)
chain: MFFSSGFPFDSMGGQQARRKREVNNNKFYEVLNLKKNCTTDEVKKAYRKLAIIHHPDKGGDPEKFKEISRAYEVLSDEEKRKLYDEYGEEGLENGEQPADATDLFDFILNAGKGKKKRGEDIVSEVKVTLEQLYNGATKKLAISKDIICTNCEGHGGPKDAKVDCKQCNGRGTKTYMRYHSSVLHQTEVTCNTCRGKGKIFNEKDKCANCKGMCVLKTRKIIEVYIPKGAPNKHKIVFNGEADEKPNVITGNLVVILNEKQHPVFRREGIDLFMNYKISLYESLTGFVAEVTHLDERKILVNCTNSGFIRHGDIREVLDEGMPTYKDPFKKGNLYITFEVEYPMDLIITNENKEVLKILKKQNEVEKKYDLENSELEVVSCSPVDKEYIKVRVTKQQQQQQQEAYDDEDHQPEMEGGRVACAQQ
notes: P. falciparum type I Hsp40, cytosolic co-chaperone of PfHsp70-1; PlasmoDB PF3D7_1437900; codon harmonized gene cloned into pQE30 (BamHI, HindIII); also called PfHsp40
B8: peptide NRNNTG (peptide)
peptide: NRNNTG
notes: NRLLTG with the middle residues substituted by asparagine; source: synthetic peptide

Series [1] addresses B2. Description: SPR. The note with it: both partners purified.
In series [2] the target is T1, Escherichia coli DnaK (Escherichia coli, UniProt P0A6Y8 1-638).
T1 construct: E. coli Hsp70 (DnaK); expressed from pQE30/DnaK; also called E. coli Hsp70
Description: SPR; MP-SPR; Hsp70 immobilised, peptide as analyte at 0-2000 nM, 100 µL/min; with 5 mM ADP. As to conditions: both partners purified. On the technique in general: Surface plasmon resonance follows binding to a sensor surface in real time, without labels.

Series [3] deals with the molecule itself. Nature of the series: SPR; MP-SPR (BioNavis); Hsp70 immobilised on a CMD3D 500L chip, the same Hsp70 as analyte at 0-2000 nM; no nucleotide; self-association, step not told; global fit.
Series [4] concerns the molecule itself. Description: SPR; MP-SPR (BioNavis); Hsp70 immobilised on a CMD3D 500L chip, the same Hsp70 as analyte at 0-2000 nM; with 5 mM ADP; self-association, step not told; global fit.
Series [5] deals with the molecule itself. Nature of the series: SPR; MP-SPR (BioNavis); Hsp70 immobilised on a CMD3D 500L chip, the same Hsp70 as analyte at 0-2000 nM; with 5 mM ATP; self-association, step not told; global fit.
Series [6] deals with T1, Escherichia coli DnaK. Description: SPR; MP-SPR; Hsp70 immobilised, peptide as analyte at 0-2000 nM, 100 µL/min; with 5 mM ATP (hydrolysable). The note with it: both partners purified.
Series [7] has as its target T1, Escherichia coli DnaK. Description: SPR. As to conditions: both partners purified.
Series [8] has as its target B2. Description: SPR; MP-SPR (BioNavis); Hsp70 immobilised (1.0 μg/mL), PfHsp40 as analyte at 0-2000 nM; with 5 mM ADP; global fit. The note with it: both partners purified.
Series [9] addresses B2. Description: SPR; MP-SPR (BioNavis); Hsp70 immobilised (1.0 μg/mL), PfHsp40 as analyte at 0-2000 nM; no nucleotide; global fit. The note with it: both partners purified.
Series [10] deals with B2. Description: SPR; MP-SPR (BioNavis); Hsp70 immobilised (1.0 μg/mL), PfHsp40 as analyte at 0-2000 nM; with 5 mM ATP; global fit. As to conditions: both partners purified.

For the molecule B1, the binding result in series [1] and in series [2] was “binds” each time.

A word on the Kd: it is the concentration at which binding is half-saturated. Read a high Kd as lower affinity. Usually kon stands for a measure of how fast the partners come together. Higher therefore signals faster complex formation. B2: the Kd came out at 2390 nM in series [3], 1710 nM in series [4] and 528 nM in series [5]. Besides, the kon is 8510 M⁻¹ s⁻¹ in series [3], 100 M⁻¹ s⁻¹ in series [4] and 21400 M⁻¹ s⁻¹ in [5].

In the case of B3, the binding result in series [1] and in series [6] was “binds” each time.

As for B4, the binding result in [1] and in [6] was “binds” in each case.

As to B5, the binding result in series [1] and in [2] was “binds” each time.

Regarding B6, the binding result in [1] and in series [6] was “binds” each time.

For the molecule B7, the kon is 122 M⁻¹ s⁻¹ and 116 M⁻¹ s⁻¹ and 112 M⁻¹ s⁻¹ in series [7]; 1530 M⁻¹ s⁻¹ in series [8]; 1330 M⁻¹ s⁻¹ in series [9]; 181 M⁻¹ s⁻¹ in series [10]. The values for the Kd in series [8], in series [9] and in [10] were 9980 nM, 18800 nM and 208 nM, respectively.

As for B8, the binding result in series [1] and in series [2] was “binds” throughout.
